Experimental findings from publication PMC10520331, “Novel exported fusion enzymes with chorismate mutase and cyclohexadienyl dehydratase activity: Shikimate pathway enzymes teamed up in no man's land” (The Journal of Biological Chemistry, 2023) are described below.

In data set [1] the test system is C=C(O[C@@H]1C=C(C(=O)O)C=C[C@H]1O)C(=O)O. Kind of data set: purified protein. Particulars: PBS pH 7.5, 30 °C, CM site, lowest substrate 2.5 μM (Km near or below this is less reliable).
Data set [2] deals with O=C(O)C(=O)CC1(C(=O)O)C=CC(O)C=C1. The experiment in a line: purified protein. Particulars: PBS pH 7.5, 30 °C, CDT site.
Data set [3] deals with T1, O=C(O)C(=O)CC1(C(=O)O)C=CC(O)C=C1.
T1 construct: fusion enzyme, CM N-terminal to CDT; without signal peptide, C-terminal His-tag; E. coli KA29; monomer
Kind of data set: discontinuous CDT assay, phenylpyruvate enolate A320. Type of data set: biochemical, Steroidobacter cummioxidans. Conditions: PBS pH 7.5, 30 °C, CDT site. The source says:
discontinuous CDT assay, phenylpyruvate enolate A320 on ∗ScCMCDT

Data set [4] concerns T2, C=C(O[C@@H]1C=C(C(=O)O)C=C[C@H]1O)C(=O)O.
T2 construct: fusion enzyme, CM N-terminal to CDT; without signal peptide, C-terminal His-tag; E. coli KA29; monomer
Kind of data set: discontinuous CM assay, phenylpyruvate enolate A320. Type of data set: biochemical, Steroidobacter cummioxidans. Conditions: PBS pH 7.5, 30 °C, CM site. From the text: discontinuous CM assay, phenylpyruvate enolate A320 on ∗ScCMCDT

Substrate in data set [5]: C=C(O[C@@H]1C=C(C(=O)O)C=C[C@H]1O)C(=O)O
The description is as above. Type of data set: biochemical, Janthinobacterium sp. HH01. Particulars: PBS pH 7.5, 30 °C, CM site, lowest substrate 2.5 μM (Km near or below this is less reliable). The source says:
discontinuous CM assay, phenylpyruvate enolate A320 on ∗JbCDTCM

Substrate in data set [6]: O=C(O)C(=O)CC1(C(=O)O)C=CC(O)C=C1
Kind of data set: discontinuous CDT assay, phenylpyruvate enolate A320. Type of data set: biochemical, Janthinobacterium sp. HH01. Particulars: PBS pH 7.5, 30 °C, CDT site. The source says:
discontinuous CDT assay, phenylpyruvate enolate A320 on ∗JbCDTCM

Substrate in data set [7]: C=C(O[C@@H]1C=C(C(=O)O)C=C[C@H]1O)C(=O)O
The experiment in a line: discontinuous CM assay, phenylpyruvate enolate A320. Conditions: PBS pH 7.5, 30 °C, lowest substrate 2.5 μM (Km near or below this is less reliable). Type of data set: biochemical, Janthinobacterium sp. HH01. From the text:
discontinuous CM assay, phenylpyruvate enolate […] on ∗JbCM

Substrate in data set [8]: C=C(O[C@@H]1C=C(C(=O)O)C=C[C@H]1O)C(=O)O
The data set is described as above. Type of data set: biochemical, Shewanella baltica. Conditions: PBS pH 7.5, 30 °C, CM site, lowest substrate 2.5 μM (Km near or below this is less reliable). From the text:
discontinuous CM assay, phenylpyruvate enolate A320 on ∗SbCMCDT

Substrate in data set [9]: O=C(O)C(=O)CC1(C(=O)O)C=CC(O)C=C1
Kind of data set: discontinuous CDT assay, phenylpyruvate enolate A320. Type of data set: biochemical, Shewanella baltica. Particulars: PBS pH 7.5, 30 °C, CDT site, lowest substrate 2.5 μM (Km near or below this is less reliable). From the text:
discontinuous CDT assay, phenylpyruvate enolate A320 on ∗SbCMCDT

Where [10] appears, read: CM-site knock-out, lowest substrate 2.5 μM (Km near or below this is less reliable).

For the molecule ∗DsCDTCM (Duganella sacchari), in data set [1], the Michaelis-Menten constant (Km) (commonly the concentration of substrate that gives half-maximal velocity) stood at 3.0 ± 0.8 µM; the turnover number (kcat) (as a rule, the maximal rate divided by the concentration of active sites) amounted to 19.5 ± 0.2 s⁻¹; the specificity constant (kcat/Km) – broadly, the turnover number divided by the Michaelis constant – was determined as 6.8e+06 ± 1.9e+06 M⁻¹ s⁻¹. In data set [2], the Km was determined as 14.6 ± 3.1 µM, the kcat was found to be 24.9 ± 2.0 s⁻¹ and the kcat/Km is 1.8e+06 ± 500000 M⁻¹ s⁻¹.

With ∗ScCMCDT (Steroidobacter cummioxidans), in data set [3], the Michaelis-Menten constant (Km) is 16.6 ± 2.5 µM, the turnover number (kcat) was found to be 32.0 ± 8.4 s⁻¹ and the kcat/Km is 1.9e+06 ± 200000 M⁻¹ s⁻¹. Moreover, in [4], the Km stood at 6.3 ± 3.9 µM and the kcat was found to be 6.8 ± 0.7 s⁻¹.

For the molecule ∗MpCDTCM (Massilia phosphatilytica), in [1], the Michaelis-Menten constant (Km) amounted to 3.2 ± 0.0 µM, the turnover number (kcat) came out at 26.3 ± 1.4 s⁻¹ and the catalytic efficiency (kcat/Km) was 8.3e+06 ± 400000 M⁻¹ s⁻¹. For the same molecule, in data set [2], the Km stood at 18.1 ± 1.7 µM, the catalytic constant (kcat) is 41.8 ± 3.5 s⁻¹ and the kcat/Km came out at 2.3e+06 M⁻¹ s⁻¹.

B1: ∗JbCDTCM (Janthinobacterium sp. HH01) (protein)
chain: DHRLDDITARGVLRVGTTGDYKPFSSRAGNDFVGLDIELAADLARTLGVPVQIVPTSWPTLMKDFGDGKFDIALGGVSITPERQKQGLFSVSYLRDGKTPITRCENSARFQTLAQIDQPGVRLVVNPGGTNERFARSQAPNAQLTVYPDNVTIFDQIVTGAADLMITDAIETRLQQRLRPQLCAVHPDTPFDFAEKAILLPRDVAFKAVVDKWLQQRIASGAVQRSVDRWLDFPWGLEPLRLAIDQRLLLAQAVARAKWNVQAPIEDLGREAQVIQAAVKEGAALGLPKVWIETVFRAQIEASKTVQRELFAQWSAQQAGKFDDAPDLAKTIRPELDRLTTQLLRSMASNQTVLNDEARKADVARAMRALEARALSPQAATQALAPFF
notes: fusion enzyme, CDT N-terminal to CM; without signal peptide, C-terminal His-tag; E. coli KA29; monomer
Take B1: in data set [5], the Km was 3.0 ± 0.1 µM, the kcat stood at 17.1 ± 0.9 s⁻¹ and the kcat/Km came out at 5.7e+06 ± 100000 M⁻¹ s⁻¹. In addition, in data set [6], the Km was determined as 7.3 ± 2.0 µM, the catalytic constant (kcat) stood at 13.0 ± 1.3 s⁻¹ and the specificity constant (kcat/Km) was 1.8e+06 ± 300000 M⁻¹ s⁻¹.

B2: ∗JbCDTCM (Janthinobacterium sp. HH01; E200Q) (protein)
chain: DHRLDDITARGVLRVGTTGDYKPFSSRAGNDFVGLDIELAADLARTLGVPVQIVPTSWPTLMKDFGDGKFDIALGGVSITPERQKQGLFSVSYLRDGKTPITRCENSARFQTLAQIDQPGVRLVVNPGGTNERFARSQAPNAQLTVYPDNVTIFDQIVTGAADLMITDAIQTRLQQRLRPQLCAVHPDTPFDFAEKAILLPRDVAFKAVVDKWLQQRIASGAVQRSVDRWLDFPWGLEPLRLAIDQRLLLAQAVARAKWNVQAPIEDLGREAQVIQAAVKEGAALGLPKVWIETVFRAQIEASKTVQRELFAQWSAQQAGKFDDAPDLAKTIRPELDRLTTQLLRSMASNQTVLNDEARKADVARAMRALEARALSPQAATQALAPFF
notes: as for B1
Regarding B2, in data set [5] (CDT-site knock-out), the Michaelis constant (Km) worked out at 2.4 ± 1.3 µM, the kcat came out at 15.6 ± 0.4 s⁻¹ and the kcat/Km was determined as 7.9e+06 ± 4.5e+06 M⁻¹ s⁻¹.

B3: ∗JbCDTCM (Janthinobacterium sp. HH01; K287A) (protein)
chain: DHRLDDITARGVLRVGTTGDYKPFSSRAGNDFVGLDIELAADLARTLGVPVQIVPTSWPTLMKDFGDGKFDIALGGVSITPERQKQGLFSVSYLRDGKTPITRCENSARFQTLAQIDQPGVRLVVNPGGTNERFARSQAPNAQLTVYPDNVTIFDQIVTGAADLMITDAIETRLQQRLRPQLCAVHPDTPFDFAEKAILLPRDVAFKAVVDKWLQQRIASGAVQRSVDRWLDFPWGLEPLRLAIDQRLLLAQAVARAAWNVQAPIEDLGREAQVIQAAVKEGAALGLPKVWIETVFRAQIEASKTVQRELFAQWSAQQAGKFDDAPDLAKTIRPELDRLTTQLLRSMASNQTVLNDEARKADVARAMRALEARALSPQAATQALAPFF
notes: as for B1
For the molecule B3, in [6] (setting [10]), the Km came to 4.2 ± 0.4 µM, the kcat was 13.9 ± 0.3 s⁻¹ and the kcat/Km is 3.3e+06 ± 200000 M⁻¹ s⁻¹.

B4: ∗JbCM (Janthinobacterium sp. HH01) (protein)
chain: GLEPLRLAIDQRLLLAQAVARAKWNVQAPIEDLGREAQVIQAAVKEGAALGLPKVWIETVFRAQIEASKTVQRELFAQWSAQQAGKFDDAPDLAKTIRPELDRLTTQLLRSMASNQTVLNDEARKADVARAMRALEARALSPQAATQALAPFF
notes: split-off CM domain of JbCDTCM, starts at Gly238; C-terminal His-tag; E. coli KA29
Turning to B4, in data set [7], the Km is 2.2 ± 0.3 µM, the kcat came out at 16.4 ± 1.5 s⁻¹ and the catalytic efficiency (kcat/Km) came out at 7.6e+06 ± 1.7e+06 M⁻¹ s⁻¹.

B5: ∗SbCMCDT (Shewanella baltica OS155) (protein)
chain: DTDENAELYANMNTRLSYMQQVALYKWQHQLPIEDLAREKIVLAQSVTAAESLGITSVAITDFFQVQIELAKKIQRQYHQQWREHGLPQTLQTKQNTKLSLDKIRPALTTLGQTIIEQIAEHQDQHDFSVFNLAIDTPLVSIEDKAVLFRSLSLIKPKVYLSTLDKIIAEKILYVGTTGDYEPFSYFEAGQIKGIDIDLANRLADSLGAQAVFLPTSWSNLITDLSSERFDIMMSGISKQLFRQRVGLQSDIYLEDGKTPISLCAKKERYDSLAKIDKPDTRMIVNKGGTNQRFVDANIKQAKITVHSSNVTIFQELIANRADVMITDRVEVQLQTKKHTELCSTMPNNLNYSAKAFLMGRDPIWKEYVDAWLELSIKDGSVSNIFNHYI
notes: fusion enzyme, CM N-terminal to CDT; without signal peptide, C-terminal His-tag; E. coli KA29
For B5, in [8], the Michaelis-Menten constant (Km) was 3.2 ± 2.7 µM and the turnover number (kcat) worked out at 6.8 ± 0.1 s⁻¹. Besides, in data set [9], the Km came to 3.6 ± 1.1 µM, the kcat amounted to 12.2 ± 2.8 s⁻¹ and the catalytic efficiency (kcat/Km) stood at 3.5e+06 ± 300000 M⁻¹ s⁻¹.
